Assay results as given in patent publication US20240352133A1.
Numbering of substitutions follows the chain as printed.

B1: VRDN-03038 (antibody, V domains shown)
VH: QVELVESGGGVVQPGRSQRLSCAASGFTFSSYGMHWVRQAPGKGLEWVAIIWFDGSSTYYADSVRGRFTISRDNSKNTLYLQMNSLRAEDTAVYFCARELGRRYFDLWGRGTLVSVSS
VL: EIVLTQSPATLSLSPGERATLSCHASQSVSSYLAWYQQKPGQAPRLLIYDASKRATGIPARFSGSGSGTDFTLTISSLEPEDFAVYYCQQRSKWPPWTFGQGTKVESK
B2: VRDN-03039 (antibody, V domains shown)
VH: B1 VH
VL: B1 VL with H24R, A25H
B3: VRDN-03041 (antibody, V domains shown)
VH: B1 VH
VL: B1 VL with H24R, Q27H
B4: VRDN-03042 (antibody, V domains shown)
VH: B1 VH
VL: B1 VL with H24R, S28H
B5: VRDN-03043 (antibody, V domains shown)
VH: B1 VH
VL: B1 VL with H24R, V29H
B6: VRDN-03044 (antibody, V domains shown)
VH: B1 VH
VL: B1 VL with H24R, S30H
B7: VRDN-03045 (antibody, V domains shown)
VH: B1 VH
VL: B1 VL with H24R, S31H
B8: VRDN-03046 (antibody, V domains shown)
VH: B1 VH
VL: B1 VL with H24R, Y32H
B9: VRDN-03047 (antibody, V domains shown)
VH: B1 VH
VL: B1 VL with H24R, L33H
B10: VRDN-03049 (antibody, V domains shown)
VH: B1 VH
VL: B1 VL with H24R, D50H
B11: VRDN-03050 (antibody, V domains shown)
VH: B1 VH
VL: B1 VL with H24R, A51H
B12: VRDN-03051 (antibody, V domains shown)
VH: B1 VH
VL: B1 VL with H24R, S52H
B13: VRDN-03053 (antibody, V domains shown)
VH: B1 VH
VL: B1 VL with H24R, R54H
B14: VRDN-03054 (antibody, V domains shown)
VH: B1 VH
VL: B1 VL with H24R, A55H
B15: VRDN-03055 (antibody, V domains shown)
VH: B1 VH
VL: B1 VL with H24R, T56H
B16: VRDN-03098 (antibody, V domains shown)
VH: B1 VH with E3Q, Q18L, G33S, T58K, R65K, F95Y, L107I, S115T
VL: B1 VL with H24R, S28G, D50G, K53T, K93R, V105L, S107I
B17: VRDN-03099 (antibody, V domains shown)
VH: B1 VH with E3Q, Q18L, G33S, T58K, A61V, R65K, F95Y, L107I, S115T
VL: B1 VL with H24R, S28G, D50G, K53T, K93R, V105L, S107I
B18: VRDN-03100 (second entry of that label; VH and VL pair SEQ ID NO: 223) (antibody, V domains shown)
VH: B1 VH with E3Q, Q18L, G33S, T58K, A61P, D62G, R65K, F95Y, L107I, S115T
VL: B1 VL with H24R, S28G, D50G, K53T, K93R, V105L, S107I
B19: VRDN-03101 (antibody, V domains shown)
VH: B1 VH with E3Q, Q18L, S31D, G33T, T58K, R65K, F95Y, L107I, S115T
VL: B1 VL with H24R, S28G, D50G, K53T, K93R, V105L, S107I
B20: VRDN-03102 (antibody, V domains shown)
VH: B1 VH with E3Q, Q18L, S31D, G33T, T58K, A61V, R65K, F95Y, L107I, S115T
VL: B1 VL with H24R, S28G, D50G, K53T, K93R, V105L, S107I
B21: VRDN-03103 (antibody, V domains shown)
VH: QVQLVESGGGVVQPGRSLRLSCAASGFTFSDYTMHWVRQAPGKGLEWVAIIWFDGSSKYYPGSVKGRFTISRDNSKNTLYLQMNSLRAEDTAVYYCARELGRRYFDIWGRGTLVTVSS
VL: B1 VL with H24R, S28G, D50G, K53T, K93R, V105L, S107I
B22: VRDN-03104 (antibody, V domains shown)
VH: B21 VH with Y32H, T33Y, H35D, P61A, G62D
VL: B1 VL with H24R, S28G, D50G, K53T, K93R, V105L, S107I
B23: VRDN-03105 (antibody, V domains shown)
VH: B21 VH with Y32H, T33Y, H35D, P61V, G62D
VL: B1 VL with H24R, S28G, D50G, K53T, K93R, V105L, S107I
B24: VRDN-03106 (antibody, V domains shown)
VH: B21 VH with Y32H, T33Y, H35D
VL: B1 VL with H24R, S28G, D50G, K53T, K93R, V105L, S107I
B25: VRDN-03115 (antibody, V domains shown)
VH: B21 VH with Y32H, T33Y, H35D
VL: EIVMTQSPATLSVSPGERATLSCRASQGVSSYLAWYQQKPGQAPRLLIYGASTRATGIPARFSGSGSGTEFTLTISSLQSEDFAVYYCQQRSRWPPWTFGQGTKLEIK
B26: VRDN-03134 (antibody, V domains shown)
VH: B21 VH with Q1E, D31S, T33S, I50V, F53Y, P61A, G62D, G66S, R110Q
VL: B25 VL with Y32N, Q101G
B27: VRDN-03135 (antibody, V domains shown)
VH: B21 VH with Q1E, S30D, T33A, P61A, G62D, R110Q
VL: B25 VL with Y32N, Q101G
B28: VRDN-03136 (antibody, V domains shown)
VH: B21 VH with Q1E, S30D, P61A, G62D, R110Q
VL: B25 VL with Y32N, Q101G
B29: VRDN-03137 (antibody, V domains shown)
VH: B21 VH with Q1E, S30D, T33A, I50V, F53Y, P61A, G62D, R110Q
VL: B25 VL with Y32N, Q101G
B30: VRDN-03138 (antibody, V domains shown)
VH: B21 VH with Q1E, S30D, I50V, F53Y, P61A, G62D, R110Q
VL: B25 VL with Y32N, Q101G
B31: VRDN-03139 (antibody, V domains shown)
VH: B21 VH with Q1E, P61A, G62D, G66S, R110Q
VL: B25 VL with Y32N, Q101G

Experiments:
[1] = biological target: Recombinant human his-tagged IGF 1R extracellular domain protein (human) (UniProt P08069); test: SPR, captured antibody, dissociation at pH 6
[2] = biological target: Recombinant human his-tagged IGF 1R extracellular domain protein (human) (UniProt P08069); test: SPR, captured antibody, pH 7.4

Binder | Kd [1] [nM] | koff [1] [s⁻¹] | kon [1] [M⁻¹ s⁻¹] | Kd [2] [nM] | koff [2] [s⁻¹] | kon [2] [M⁻¹ s⁻¹]
B1 | 1.4 | 0.000115 | 82000 | 1.72 | 0.000167 | 96900
B2 | 14.3 | 0.00563 | 394000 | 11.3 | 0.00332 | 294000
B3 | 0.556 | 3.61e-05 | 65000 | 3.16 | 0.0003 | 94900
B4 | 1.2 | 9.44e-05 | 78400 | 1.53 | 0.000172 | 112000
B5 | 18.2 | 0.0253 | 1.39e+06 | 22.4 | 0.0111 | 493000
B6 | 3.79 | 0.000217 | 57300 | 1.96 | 0.000192 | 98400
B7 | 0.624 | 5.02e-05 | 80500 | 1.29 | 0.000135 | 105000
B8 | 1.87 | 0.000159 | 84800 | 1.58 | 0.000162 | 103000
B9 | 3.77 | 0.000294 | 78100 | 2.95 | 0.000282 | 95700
B10 | 2.7 | 0.000201 | 74300 | 1.56 | 0.000183 | 117000
B11 | 2.25 | 0.00017 | 75800 | 2.03 | 0.00021 | 103000
B12 | 2.12 | 0.000162 | 76200 | 1.86 | 0.000203 | 110000
B13 | 1.67 | 0.00016 | 95500 | 1.79 | 0.000188 | 105000
B14 | 0.866 | 8.18e-05 | 94500 | 1.11 | 0.000104 | 93500
B15 | 1.61 | 0.00014 | 87000 | 1.92 | 0.000188 | 97700
B16 | 1.24 | 0.000306 | 247000 | 2.05 | 0.000135 | 65900

Binder | Kd [1] [nM] | koff [1] [s⁻¹] | kon [1] [M⁻¹ s⁻¹] | Kd [2] [nM] | koff [2] [s⁻¹] | kon [2] [M⁻¹ s⁻¹]
B17 | 1.34 | 0.000296 | 221000 | 2.18 | 0.000139 | 63700
B18 | 1.69 | 0.00107 | 630000 | 5.52 | 0.00134 | 244000
B19 | 1.23 | 0.000268 | 219000 | 0.785 | 7.02e-05 | 89300
B20 | 1.46 | 0.000319 | 218000 | 2.68 | 0.000173 | 64500
B21 | 1.44 | 0.00216 | 1.5e+06 | 12.8 | 0.00637 | 498000
B22 | 1.63 | 0.000283 | 173000 | 3.05 | 0.000259 | 85000
B23 | 1.99 | 0.000281 | 141000 | 0.89 | 0.000361 | 405000
B24 | 1.81 | 0.00218 | 1.2e+06 | 16.1 | 0.00105 | 65100
B25 | 1.21 | 0.000297 | 246000 | – | – | –
B26 | – | – | – | 4.89 | 0.0012 | 245000
B27 | – | – | – | 4.06 | 0.000414 | 102000
B28 | – | – | – | 2.84 | 0.000253 | 89100
B29 | – | – | – | 15.1 | 0.0142 | 940000
B30 | – | – | – | 8.75 | 0.00433 | 495000
B31 | – | – | – | 2.46 | 0.000262 | 107000
